According to patent publication US7049080B2, “Process for detecting serine/threonine kinase activity” (priority 2000, dated 2006):

Experiments:
MKK7 [1] = molecular target: T1, MKK7 (Homo sapiens, UniProt O14733); assay: FP measurements of MKK7 activity, time course (Example 7); type: biochemical; conditions: 100 μM P1°
T1 construct: purchased Upstate Biotech 14-366
T1 sequence (O14733 1-419): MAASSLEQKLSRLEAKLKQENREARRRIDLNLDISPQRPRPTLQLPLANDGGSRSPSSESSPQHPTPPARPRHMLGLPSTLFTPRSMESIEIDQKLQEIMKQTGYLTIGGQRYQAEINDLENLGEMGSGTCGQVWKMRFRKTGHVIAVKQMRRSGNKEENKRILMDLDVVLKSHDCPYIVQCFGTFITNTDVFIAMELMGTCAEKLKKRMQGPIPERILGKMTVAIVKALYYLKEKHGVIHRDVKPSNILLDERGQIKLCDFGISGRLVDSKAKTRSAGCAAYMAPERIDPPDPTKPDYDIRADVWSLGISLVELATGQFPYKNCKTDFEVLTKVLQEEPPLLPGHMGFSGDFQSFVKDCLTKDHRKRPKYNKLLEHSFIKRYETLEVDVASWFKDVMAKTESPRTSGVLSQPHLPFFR
Method: Fluorescence Polarization measurements of MKK7 activity (time course): In this experiment, the time course has been investigated at P1^∘ substrate concentrations of 100 μM. The reactions were stopped with EDTA. The following reagents have been used (the compositions of the buffers and specifications of the reagents are explained in more detail later on): […] After addition of MKK7, the enzyme reactions were performed in Nunc chambers at RT. The samples were continuously measured at different time points by Fluorescence polarization.

MKK7 [2] = molecular target: T1, MKK7; assay: FP measurements of MKK7 activity, time course, optimized conditions (Example 8); type: biochemical
Method: Fluorescence Polarization measurements of MKK7 activity (time course): In this experiment the assay conditions have been optimized. The reactions were stopped with EDTA. […] The following reagents have been used (explanations later on): […] The enzyme reactions were performed in Eppendorf reaction tubes at RT. Aliquots of 20 μl were withdrawn from the reactions at different time points and mixed with 10 μl STOP solution.

MKK7 [3] = molecular target: T1, MKK7; conditions: when max. activated; cited from earlier work

Fluorescence Polarization (MKK7 [1]; MKK7 0.005 μM, 0 h): 131.5 mP
Fluorescence Polarization (MKK7 [1]; MKK7 0.005 μM, 0.5 h): 137.4 mP
Fluorescence Polarization (MKK7 [1]; MKK7 0.005 μM, 1 h): 136.8 mP
Fluorescence Polarization (MKK7 [1]; MKK7 0.005 μM, 1.5 h): 136.9 mP
Fluorescence Polarization (MKK7 [1]; MKK7 0.005 μM, 3 h): 138.1 mP
Fluorescence Polarization (MKK7 [1]; MKK7 0.02 μM, 0 h): 135.4 mP
Fluorescence Polarization (MKK7 [1]; MKK7 0.02 μM, 0.5 h): 140.3 mP
Fluorescence Polarization (MKK7 [1]; MKK7 0.02 μM, 1 h): 140.9 mP
Fluorescence Polarization (MKK7 [1]; MKK7 0.02 μM, 1.5 h): 139.7 mP
Fluorescence Polarization (MKK7 [1]; MKK7 0.02 μM, 3 h): 140.0 mP
Fluorescence Polarization (MKK7 [1]; MKK7 0.08 μM, 0 h): 133.5 mP
Fluorescence Polarization (MKK7 [1]; MKK7 0.08 μM, 0.5 h): 137.6 mP
Fluorescence Polarization (MKK7 [1]; MKK7 0.08 μM, 1 h): 135.8 mP
Fluorescence Polarization (MKK7 [1]; MKK7 0.08 μM, 1.5 h): 128.4 mP
Fluorescence Polarization (MKK7 [1]; MKK7 0.08 μM, 3 h): 115.2 mP
Fluorescence Polarization (MKK7 [1]; MKK7 0.2 μM, 0 h): 135.3 mP
Fluorescence Polarization (MKK7 [1]; MKK7 0.2 μM, 0.5 h): 132.1 mP
Fluorescence Polarization (MKK7 [1]; MKK7 0.2 μM, 1 h): 121.9 mP
Fluorescence Polarization (MKK7 [1]; MKK7 0.2 μM, 1.5 h): 113.8 mP
Fluorescence Polarization (MKK7 [1]; MKK7 0.2 μM, 3 h): 104.7 mP
Fluorescence Polarization (MKK7 [1]; MKK7 0.5 μM, 0 h): 135.3 mP
Fluorescence Polarization (MKK7 [1]; MKK7 0.5 μM, 0.5 h): 125.5 mP
Fluorescence Polarization (MKK7 [1]; MKK7 0.5 μM, 1 h): 115.3 mP
Fluorescence Polarization (MKK7 [1]; MKK7 0.5 μM, 1.5 h): 108.8 mP
Fluorescence Polarization (MKK7 [1]; MKK7 0.5 μM, 3 h): 106.6 mP
Fluorescence Polarization (MKK7 [1]; MKK7 1.0 μM, 0 h): 135.7 mP
Fluorescence Polarization (MKK7 [1]; MKK7 1.0 μM, 0.5 h): 119.6 mP
Fluorescence Polarization (MKK7 [1]; MKK7 1.0 μM, 1 h): 112.2 mP
Fluorescence Polarization (MKK7 [1]; MKK7 1.0 μM, 1.5 h): 105.3 mP
Fluorescence Polarization (MKK7 [1]; MKK7 1.0 μM, 3 h): 108.4 mP
Fluorescence Polarization (MKK7 [2]; NEB ab in STOP sol., MKK7 0.04 μM, 0 h): 147.2 mP
Fluorescence Polarization (MKK7 [2]; NEB ab in STOP sol., MKK7 0.04 μM, 0.5 h): 141.5 mP
Fluorescence Polarization (MKK7 [2]; NEB ab in STOP sol., MKK7 0.04 μM, 1 h): 140.2 mP
Fluorescence Polarization (MKK7 [2]; NEB ab in STOP sol., MKK7 0.04 μM, 1.5 h): 135.8 mP
Fluorescence Polarization (MKK7 [2]; NEB ab in STOP sol., MKK7 0.04 μM, 2 h): 134.2 mP
Fluorescence Polarization (MKK7 [2]; NEB ab in STOP sol., MKK7 0.04 μM, 3 h): 138.2 mP
Fluorescence Polarization (MKK7 [2]; NEB ab in STOP sol., MKK7 0.08 μM, 0 h): 143.3 mP
Fluorescence Polarization (MKK7 [2]; NEB ab in STOP sol., MKK7 0.08 μM, 0.5 h): 139.1 mP
Fluorescence Polarization (MKK7 [2]; NEB ab in STOP sol., MKK7 0.08 μM, 1 h): 133.6 mP
Fluorescence Polarization (MKK7 [2]; NEB ab in STOP sol., MKK7 0.08 μM, 1.5 h): 122.1 mP
Fluorescence Polarization (MKK7 [2]; NEB ab in STOP sol., MKK7 0.08 μM, 2 h): 115.8 mP
Fluorescence Polarization (MKK7 [2]; NEB ab in STOP sol., MKK7 0.08 μM, 3 h): 125.0 mP
Fluorescence Polarization (MKK7 [2]; NEB ab in STOP sol., MKK7 0.2 μM, 0 h): 148.2 mP
Fluorescence Polarization (MKK7 [2]; NEB ab in STOP sol., MKK7 0.2 μM, 0.5 h): 130.2 mP
Fluorescence Polarization (MKK7 [2]; NEB ab in STOP sol., MKK7 0.2 μM, 1 h): 114.0 mP
Fluorescence Polarization (MKK7 [2]; NEB ab in STOP sol., MKK7 0.2 μM, 1.5 h): 102.8 mP
Fluorescence Polarization (MKK7 [2]; NEB ab in STOP sol., MKK7 0.2 μM, 2 h): 99.2 mP
Fluorescence Polarization (MKK7 [2]; NEB ab in STOP sol., MKK7 0.2 μM, 3 h): 119.4 mP
Fluorescence Polarization (MKK7 [2]; NEB ab in reaction, MKK7 0.04 μM, 0 h): 150.0 mP
Fluorescence Polarization (MKK7 [2]; NEB ab in reaction, MKK7 0.04 μM, 0.5 h): 128.5 mP
Fluorescence Polarization (MKK7 [2]; NEB ab in reaction, MKK7 0.04 μM, 1 h): 125.7 mP
Fluorescence Polarization (MKK7 [2]; NEB ab in reaction, MKK7 0.04 μM, 1.5 h): 112.9 mP
Fluorescence Polarization (MKK7 [2]; NEB ab in reaction, MKK7 0.04 μM, 2 h): 109.7 mP
Fluorescence Polarization (MKK7 [2]; NEB ab in reaction, MKK7 0.04 μM, 3 h): 78.6 mP
Fluorescence Polarization (MKK7 [2]; NEB ab in reaction, MKK7 0.08 μM, 0 h): 138.5 mP
Fluorescence Polarization (MKK7 [2]; NEB ab in reaction, MKK7 0.08 μM, 0.5 h): 122.5 mP
Fluorescence Polarization (MKK7 [2]; NEB ab in reaction, MKK7 0.08 μM, 1 h): 105.9 mP
Fluorescence Polarization (MKK7 [2]; NEB ab in reaction, MKK7 0.08 μM, 1.5 h): 86.4 mP
Fluorescence Polarization (MKK7 [2]; NEB ab in reaction, MKK7 0.08 μM, 2 h): 84.5 mP
Fluorescence Polarization (MKK7 [2]; NEB ab in reaction, MKK7 0.08 μM, 3 h): 65.0 mP
Fluorescence Polarization (MKK7 [2]; NEB ab in reaction, MKK7 0.2 μM, 0 h): 137.2 mP
Fluorescence Polarization (MKK7 [2]; NEB ab in reaction, MKK7 0.2 μM, 0.5 h): 101.4 mP
Fluorescence Polarization (MKK7 [2]; NEB ab in reaction, MKK7 0.2 μM, 1 h): 83.1 mP
Fluorescence Polarization (MKK7 [2]; NEB ab in reaction, MKK7 0.2 μM, 1.5 h): 78.1 mP
Fluorescence Polarization (MKK7 [2]; NEB ab in reaction, MKK7 0.2 μM, 2 h): 72.1 mP
Fluorescence Polarization (MKK7 [2]; NEB ab in reaction, MKK7 0.2 μM, 3 h): 59.4 mP
B1: MKK7: MKK7 kinase, supplier Upstate Biotech cat. no. 14-366 (protein, UniProt O14733 2-419, looked up)
Dual specificity …: AASSLEQKLSRLEAKLKQENREARRRIDLNLDISPQRPRPTLQLPLANDGGSRSPSSESSPQHPTPPARPRHMLGLPSTLFTPRSMESIEIDQKLQEIMKQTGYLTIGGQRYQAEINDLENLGEMGSGTCGQVWKMRFRKTGHVIAVKQMRRSGNKEENKRILMDLDVVLKSHDCPYIVQCFGTFITNTDVFIAMELMGTCAEKLKKRMQGPIPERILGKMTVAIVKALYYLKEKHGVIHRDVKPSNILLDERGQIKLCDFGISGRLVDSKAKTRSAGCAAYMAPERIDPPDPTKPDYDIRADVWSLGISLVELATGQFPYKNCKTDFEVLTKVLQEEPPLLPGHMGFSGDFQSFVKDCLTKDHRKRPKYNKLLEHSFIKRYETLEVDVASWFKDVMAKTESPRTSGVLSQPHLPFFR
Specific activity (MKK7 [3]): Approximately 20 Units/mg
